The values that follow come from publication PMC10522489, “Eukaryotic-like gephyrin and cognate membrane receptor coordinate corynebacterial cell division and polar elongation” (Nature Microbiology, 2023).

T1: His-SUMO-FtsZ (Corynebacterium glutamicum, UniProt P94337 1-442)
T1 construct: FtsZ, tubulin-like cell division protein, Corynebacterium glutamicum; Captured on Ni-NTA biosensors; also called 6xHis-SUMO-FtsZ; immobilized SUMO-FtsZ; source: E. coli BL21 (DE3), purified (Ni-NTA, SEC); not shown: His6, N-terminal, kept; SUMO, N-terminal, kept
T1 sequence (looked up): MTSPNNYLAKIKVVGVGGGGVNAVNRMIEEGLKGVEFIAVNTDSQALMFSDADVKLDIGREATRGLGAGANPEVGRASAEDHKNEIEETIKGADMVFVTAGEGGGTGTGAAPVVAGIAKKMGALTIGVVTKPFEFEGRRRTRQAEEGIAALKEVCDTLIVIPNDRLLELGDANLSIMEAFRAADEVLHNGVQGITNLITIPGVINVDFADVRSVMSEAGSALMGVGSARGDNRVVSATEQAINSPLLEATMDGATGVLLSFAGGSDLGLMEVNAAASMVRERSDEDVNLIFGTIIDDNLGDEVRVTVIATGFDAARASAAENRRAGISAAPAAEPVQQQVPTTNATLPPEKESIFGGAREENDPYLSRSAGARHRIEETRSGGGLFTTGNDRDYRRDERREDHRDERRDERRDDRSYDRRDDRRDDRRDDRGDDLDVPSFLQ

B1: Glp (gephyrin-like protein, Cgl0883), untagged (natural protein, Corynebacterium glutamicum ATCC13032, UniProt Q8NS03 1-419, looked up)
chain: MRSVEQQLSIVTEAAVAPEPVRIAIAEALGLMCAEEVQASRALPGFAQAAIDGYAVRAVDVGGEKSLSQQLPVAPPEKSLPVVGEVAAGSQQPLRLQPKQAVMVHTGAPLPMLADAVLPMAWSDRGRKRVTAQRPVRSGEFVRKEGDDIQPGDIAVSAGAVLGPAQIGLLAAVGRSKVLVYPRPRMSVISVGAELVDIDRQPGLGQVYDVNSYSLAAAGREAGADVYRYGIAAGEPRRIKEIIESQMLRSEIIVITGAVGGAGSAGVRQVLNELGDIDTERVAMHPGSVQGFGLLGENKIPCFLLPSNPVASLVIFETFVRPVVRMSLGKSNAARRVVRARALNHVVSVAGRKGFIRSRLMRDAETQDYLVEALGGATGAPSHLLAGLSEANGMIRIPEDVTEIRPGDVVDVIFLAQGR
notes: Glp (gephyrin-like protein, annotated molybdopterin molybdotransferase MoeA), Corynebacterium glutamicum ATCC13032, locus Cgl0883; Homodimer in the crystal structures; Called 'untagged Glp' in the BLI on GlpR; also called gephyrin-like repurposed molybdotransferase; MoeA paralogue; source: E. coli BL21 (DE3), purified (Ni-NTA, SUMO protease, SEC); not shown: His6, N-terminal, cleaved; SUMO, …
B2: GlpR (Glp receptor, Cgl0885), C-terminal His tag (receptor, Corynebacterium glutamicum ATCC13032, UniProt Q8NS01 1-340, looked up)
chain: MLHVSGILVIGLIVVVWLVVLAPLLLRGQKPIAKAGEAFDDTRVISEGGSNIPSPRRPGLSSAQLDDEEDTDDVDDDYEIVDSPSIFRPRKEEPVEEDLDTDVELEEDIEVSLETDDYVEPAPVVEVSQEWNVEDHYELDDSYDTPLDHLHPAARARAYEDFQEHQPEQQPEVEEFDADDELTEEDVAFAQRRRGRGYYDPEADREFAASQYVRRQRTLLGLAATVVISVILGFVFGGWVWGLPAVALAATALYLMALRSQVREENALRARRIRRLRRSRMGVRNSEDLPSRLRRPGAVVLELDDESPDFEGLPTVAMPEEPYYEEPRRNIRHLGQRRVS
notes: GlpR, integral membrane protein with 3 predicted transmembrane helices, Corynebacterium glutamicum ATCC13032, locus Cgl0885; In 0.05% DDM; also called C-terminal His-tagged GlpR; immobilized GlpR; source: E. coli BL21 (DE3), purified from membranes in DDM (Ni-NTA, SEC); not shown: His6, C-terminal, kept
B3: FtsZCTD peptide (peptide)
peptide: DDLDVPSFLQ
notes: C-terminal 10 residues of FtsZ, Corynebacterium glutamicum; also called 10-residue peptide FtsZCTD; C-terminal domain of FtsZ; source: synthetic peptide, bought: Genosphere

Data set [1] addresses Biotinylated His-GlpR (Corynebacterium glutamicum ATCC13032). Briefly: BLI; biotinylated GlpR immobilised on streptavidin biosensors; Wag31 150–2.34 μM in buffer A (20 mM HEPES pH 8.5, 150 mM NaCl, DDM 0.05%); 25 °C; apparent Kd from steady-state fit, one-site model.
Data set [2] has the same target. Briefly: BLI; biotinylated GlpR immobilised on streptavidin biosensors; Wag31 1-61 (DivIVA) 200–3.15 μM in buffer B (25 mM HEPES pH 7.5, 150 mM NaCl, 10% glycerol, 0.05% DDM, 1 mg/ml BSA); 25 °C; apparent Kd from steady-state fit, one-site model.
Data set [3] deals with the molecule itself. Briefly: crystal structure; 0.34 mM Glp with 1.7 mM FtsZCTD peptide; 0.1 M NaCl, 0.1 M Bis-Tris pH 6.5, 1.5 M (NH4)2SO4; 2.7 Å.
Data set [4] addresses T1, His-SUMO-FtsZ. In words: BLI; His-SUMO-FtsZ immobilised on Ni-NTA biosensors; Glp 80–1.25 μM in 2-fold dilutions; polymerization buffer (25 mM Pipes pH 6.9, 100 mM KCl, 10 mM MgCl2); 25 °C; apparent Kd from steady-state fit, one-site model. The following applies: both partners purified.
Data set [5] deals with B1. Briefly: BLI; C-terminal His-tagged GlpR immobilised on Ni-NTA biosensors; untagged Glp variants (Glp 100–1.56 nM) in 25 mM HEPES pH 7.5, 150 mM NaCl, 10% glycerol, 0.05% DDM, 1 mg/ml BSA; 25 °C; apparent Kd from steady-state fit. Conditions: both partners purified.
The target in data set [6] is B1. In words: differential scanning fluorescence (thermofluor); Glp 3 μg in 25 mM HEPES pH 8, 150 mM NaCl, 5% glycerol with or without 1 mM FtsZCTD; Sypro Orange; 25 to 95 °C. Conditions: both partners purified.

As to Wag31, full length (natural protein), the Kd in data set [1] amounted to 43.4 µM.

Consider “Wag31_(1–61) (N-terminal DivIVA domain of Wag31) (domain or fragment)”, for which the Kd in data set [2] amounted to 14.9 µM. As to B1, the “stoichiometry N” value in data set [3] came out at 2. Besides, in data set [4], the Kd is 4.7 ± 0.77 µM. As to B2, the Kd in data set [5] was 5.5 ± 0.75 nM. In the case of B3, in data set [6], the “Tm shift of Glp” value turned out to be 2 °C.
